# Data as given in PMC3896602 (mAbs, 2013).
# Changes are numbered by the printed parent chain.
# B1: human CXCL13 (natural protein)
# chain: VLEVYYTSLRCRCVQESSVFIPRRFIDRIQILPRGNGCPRKEIIVWKKNKSIVCVDPQAEWIQRMMEVLRKRSSSTLPVPVFKRKIP
# B2: anti-CXCL13 3B4 scFv-Fc fusion protein (Fc fusion, human)
# VH: QVQLVQSGAEVKKPGSSVKVSCKASGGTFSSYAISWVRQAPGQGLEWMGGIIPIFGTANYAQKFQGRVTITADESTSTAYMELSSLRSEDTAVYYCAREPDYYDSSGYYPIDAFDIWGQGTTVTVSS
# VL: QSALTQPASVSASPGQSITISCTGTSSDVGAYDWVSWYQQHPGKAPKLLIFDVNNRPSGVSHRFSGSKSGNTASLTISGLQAEDEADYYCSSYTRRDTYVFGTGTKVTVL
# B3: anti-CXCL13 A01 scFv-Fc fusion protein (Fc fusion, human)
# VH: B2 VH
# VL: B2 VL with S91A, Y93T, R95L, R96F
# B4: anti-CXCL13 H08 scFv-Fc fusion protein (Fc fusion, human)
# VH: B2 VH
# VL: B2 VL with S91T, Y93V, R95V, R96E
# B5: anti-CXCL13 C04 scFv-Fc fusion protein (Fc fusion, human)
# VH: B2 VH
# VL: B2 VL with Y93A, T94G, R95I, R96I, D97S, T98V
# B6: anti-CXCL13 H06 scFv-Fc fusion protein (Fc fusion, human)
# VH: B2 VH
# VL: B2 VL with S91A, Y93V, T94V, R95V, R96T
# B7: anti-CXCL13 E10 scFv-Fc fusion protein (Fc fusion, human)
# VH: B2 VH
# VL: B2 VL with S91A, Y93A, R95L, R96L
# B8: anti-CXCL13 C07 scFv-Fc fusion protein (Fc fusion, human)
# VH: B2 VH
# VL: B2 VL with Y93P, R95F, R96T, D97E, T98P
# Molecular target: IT1-Fc-A1 scFv-Fc-scFv bispecific molecule (human)
# Test: SPR
row,Kd [nM],Binder
1,0.01,B1

# Molecular target: IT1-Fc-E10 scFv-Fc-scFv bispecific molecule (human)
# Test: SPR
row,Kd [nM],Binder
1,0.067,B1

# Molecular target: IT1-Fc-3B4 scFv-Fc-scFv bispecific molecule (human)
# Test: SPR
row,Kd [nM],Binder
1,0.8,B1

# Molecular target: human CXCL13 (Homo sapiens, UniProt O43927)
# Test: SPR
Kd [nM],koff [s⁻¹],kon [M⁻¹ s⁻¹],Binder
0.371,0.0121,3.24e+07,B2
0.0298,0.0003,9.28e+06,B3
0.0199,0.0002,8.53e+06,B4
0.046,0.0003,6.22e+06,B5
0.0376,0.0003,7.54e+06,B6
0.0454,0.0005,9.81e+06,B7
0.0279,0.0002,8.03e+06,B8
